Measured values as given in publication PMC2697320, “Identification of the high affinity binding site in the Streptococcus intermedius toxin intermedilysin for its membrane receptor, the human complement regulator CD59” (Molecular Immunology, 2009).

Molecular target: T1, Recombinant soluble CD59 comprising amino acids 1-76 with an 11 amino acid Ser/Gly linker and termin (human, terminal Cys reduced with TCEP and thiol-coupled to the PDEA-modified CM5 chip)
T1 construct: also called recombinant CD59; immobilised CD59
Experiment: SPR
Details: both partners purified

AWEPWRLIYSKNDLPLVPC
Kd: 4.92 µM
